Reference: patent US20240075142A1 (LENTIGEN TECHNOLOGY, published 2024)
One block for each binder: values may come before it.

Biological target: T1, CD19 Fc recombinant protein (UniProt P15391 20-291)
T1 construct: Bought staining reagent (R&D System), detected with anti-Fc-AF647; also called CD19-Fc peptide; not shown: Fc part of the bought reagent
T1 sequence (looked up): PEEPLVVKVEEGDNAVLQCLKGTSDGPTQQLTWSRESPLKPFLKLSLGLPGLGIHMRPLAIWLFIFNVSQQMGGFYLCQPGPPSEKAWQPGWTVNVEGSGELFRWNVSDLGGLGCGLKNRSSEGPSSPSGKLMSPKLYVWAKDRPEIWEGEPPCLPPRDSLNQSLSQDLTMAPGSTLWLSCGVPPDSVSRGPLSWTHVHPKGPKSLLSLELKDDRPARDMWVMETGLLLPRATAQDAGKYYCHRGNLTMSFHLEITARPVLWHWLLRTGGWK
Assay: flow cytometry of CAR-transduced primary T cells stained with CD19 Fc, then anti-Fc AF647
Experimental: The surface expression of anti-CD20/CD19 CARs incorporating single chain fragment variable (ScFv) sequences reactive with fully human CD20 and CD19 antigens, is shown in Example 1 infra, FIG. 1B. The expression level for each ScFv-containing CAR was determined by flow cytometric analysis of LV-transduced T cells from healthy donors using CD19 Fc recombinant protein, followed by anti Fc AF647 (APC).
Half million CAR T cells were washed in cold AutoMACS buffer supplemented with 0.5% bovine serum albumin (Miltenyi Biotec, Bergisch Gladbach, Germany) and stained with CD19-Fc peptide (R&D System, Minneapolis, MN), followed by anti Fc-AF647 conjugate (Jackson ImmunoResearch, West Grove, PA). The 7-Aminoactinomycin D staining (7-AAD, BD Biosciences, San Jose, CA) was added to exclude dead cells. CD4 antibody labeled with Vioblue fluorochrome was used to separate CD4 and CD8 population. Non-transduced cells (UTD) were used as a negative control. Cells were washed twice, resuspended in 200 μl running buffer, and acquired by flow cytometry. Flow cytometric analysis was performed on a MACSQuant® 10 Analyzer (Miltenyi Biotec), and data plots were generated using FlowJo software (Ashland, OR).

binding result: binds
B1: CAR D0256 (CD20_CD19 CD8 CD28 BBz) (other)
chain: EIVLTQSPATLSLSPGERATLSCRASQSVSSYLAWYQQKPGQAPRLLIYDASNRATGIPARFSGSGSGTDFTLTISSLEPEDFAVYYCQQRSNWPITFGQGTRLEIKGGGGSGGGGSGGGGSEVQLVESGGGLVQPGRSLRLSCAASGFTFNDYAMHWVRQAPGKGLEWVSTISWNSGSIGYADSVKGRFTISRDNAKKSLYLQMNSLRAEDTALYYCAKDIQYGNYYYGMDVWGQGTTVTVSSGGGGSGGGGSGGGGSGGGGSGGGGSEVQLVQSGAEVKKPGASVKVSCKASGYTFTSYYMHWVRQAPGQGLEWMGLINPSGGSTSYAQKFQGRVTMTRDTSTSTVYMELSSLRSEDTAVYYCARSDRGITATDAFDIWGQGTMVTVSSGGGGSGGGGSGGGGSQSVLTQPPSVSVAPGRMAKITCGGSDIGNKNVHWYQQKPGQAPVLVVYDDYDRPSGIPERFSGSNSGDAATLTISTVEVGDEADYFCQVWDGSGDPYWMFGGGTQLTVLGAAATTTPAPRPPTPAPTIASQPLSLRPEACRPAAGGAVHTRGLDFACDIYIWAPLAGTCGVLLLSLVITLYCRSKRSRLLHSDYMNMTPRRPGPTRKHYQPYAPPRDFAAYRSKRGRKKLLYIFKQPFMRPVQTTQEEDGCSCRFPEEEEGGCELRVKFSRSADAPAYQQGQNQLYNELNLGRREEYDVLDKRRGRDPEMGGKPRRKNPQEGLYNELQKDKMAEAYSEIGMKGERRRGKGHDGLYQGLSTATKDTYDALHMQALPPR
notes: Tandem CAR on transduced human primary T cells: CD20 scFv, G4S linker, CD19 scFv, CD8 hinge/TM, CD28_4-1BB, CD3zeta; no residue limits are stated

binding result: binds
B2: CAR D0255 (CD20_CD19 CD28 CD28 BBz) (other)
chain: EIVLTQSPATLSLSPGERATLSCRASQSVSSYLAWYQQKPGQAPRLLIYDASNRATGIPARFSGSGSGTDFTLTISSLEPEDFAVYYCQQRSNWPITFGQGTRLEIKGGGGSGGGGSGGGGSEVQLVESGGGLVQPGRSLRLSCAASGFTFNDYAMHWVRQAPGKGLEWVSTISWNSGSIGYADSVKGRFTISRDNAKKSLYLQMNSLRAEDTALYYCAKDIQYGNYYYGMDVWGQGTTVTVSSGGGGSGGGGSGGGGSGGGGSGGGGSEVQLVQSGAEVKKPGASVKVSCKASGYTFTSYYMHWVRQAPGQGLEWMGLINPSGGSTSYAQKFQGRVTMTRDTSTSTVYMELSSLRSEDTAVYYCARSDRGITATDAFDIWGQGTMVTVSSGGGGSGGGGSGGGGSQSVLTQPPSVSVAPGRMAKITCGGSDIGNKNVHWYQQKPGQAPVLVVYDDYDRPSGIPERFSGSNSGDAATLTISTVEVGDEADYFCQVWDGSGDPYWMFGGGTQLTVLGAAAIEVMYPPPYLDNEKSNGTIIHVKGKHLCPSPLFPGPSKPFWVLVVVGGVLACYSLLVTVAFIIFWVRSKRSRLLHSDYMNMTPRRPGPTRKHYQPYAPPRDFAAYRSKRGRKKLLYIFKQPFMRPVQTTQEEDGCSCRFPEEEEGGCELRVKFSRSADAPAYQQGQNQLYNELNLGRREEYDVLDKRRGRDPEMGGKPRRKNPQEGLYNELQKDKMAEAYSEIGMKGERRRGKGHDGLYQGLSTATKDTYDALHMQALPPR
notes: Tandem CAR on transduced human primary T cells: CD20 scFv, G4S linker, CD19 scFv, CD28 hinge/TM, CD28_4-1BB, CD3zeta; no residue limits are stated; also called CAR DO255
